This assay concerns the target MFSD1-strep (mouse Major Facilitator Superfamily Domain Containing 1 with N-terminal Twin-Streptavidin-tag) (mouse) (UniProt Q9DC37). As to the kind of experiment: nanoDSF. (In general: In DSF a fluorescence change marks the thermal transition of the protein.)
Sequence of UniProt Q9DC37 (Q9DC37 whole entry, the tested form may be a part): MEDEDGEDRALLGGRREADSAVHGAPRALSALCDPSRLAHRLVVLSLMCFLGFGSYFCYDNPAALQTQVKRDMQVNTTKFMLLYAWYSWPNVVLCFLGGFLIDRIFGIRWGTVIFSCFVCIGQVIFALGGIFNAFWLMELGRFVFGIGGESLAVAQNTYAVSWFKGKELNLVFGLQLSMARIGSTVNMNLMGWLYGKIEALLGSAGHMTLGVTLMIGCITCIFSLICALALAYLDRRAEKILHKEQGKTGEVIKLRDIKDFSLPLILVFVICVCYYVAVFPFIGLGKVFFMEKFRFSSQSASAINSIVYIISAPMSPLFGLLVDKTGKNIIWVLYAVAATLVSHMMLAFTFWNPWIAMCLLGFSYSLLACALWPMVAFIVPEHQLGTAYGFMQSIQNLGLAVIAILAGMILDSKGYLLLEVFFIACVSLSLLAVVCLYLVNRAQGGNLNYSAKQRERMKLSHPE
Usually Kd stands for the constant that tells how readily two partners part at equilibrium. Low values mean tighter binding, high ones weaker binding. The substance Lys-Val (peptide) displayed a Kd of 4.3 mM. Same read-out and setting: next, His-Ala (peptide): 6.7 mM. For orientation: ΔTm means the shift of the melting midpoint relative to a reference. As for Pro-Arg (peptide), the Kd was 0.318 mM and the ΔTm was 12.1 °C.

In the case of Leu-Leu (peptide), the thermal shift (ΔTm) was 14 °C. On to His-Lys (peptide), for which the Kd was determined as 0.765 mM and the ΔTm came out at 12 °C.

Consider Leu-Ala (peptide), for which the dissociation constant Kd came out at 2.2 mM.
